Data: the DeepSol protein solubility set

Test: soluble on expression in E. coli; label from the status in PepcDB or PDB records

Sequence | soluble on expression in E. coli
MLKDQDRIFTNLYGLKDKSLKGVMARGHWDGTKQIIEKGRDWIINEMKASGLRGRGGAGFPTGLKWSFMPKENDGRPHYLVVNADESEPGTCKDREILRNDPHTLIEGCVIAGFAMGAHTAYIYVRGEYMREREALQAAIDECYDAGLLGKNNKNGWDYDIYVHHGAGAYICGEETALLESLEGKKGQPRLKPPFPANMGLYGCPTTVNNVESIAVAPTILRRGASWFSSIGRPNNVGTKLFMVSGHVERPCTFEDALGLSFRELIEHHCGGIRGGWDNLLGVIPGGASCPIVRGEDMKDAIMDFDGMREVKSSFGTGGMIVMDKSTDVIKAIARIAAFFKHESCGQCTPCREGTGWMWRVLERMVKGNAQKREIDMLFEVTKQIEGHTICALGDAAAWPVQALIRNFRPEIEKRIDQYTYRAMDDGAVLEAAEAAALEHHHHHH | not soluble
MLKIIRAGMYTTVQDGGRHGFRQSGISHCGALDMPALRIANLLVGNDANAPALEITLGQLTVEFETDGWFALTGAGCEARLDDNAVWTGWRLPMKAGQRLTLKRPQHGMRSYLAVAGGIDVPPVMGSCSTDLKVGIGGLEGRLLKDGDRLPIGKSKRDSMEAQGVKQLLWGNRIRALPGPEYHEFDRASQDAFWRSPWQLSSQSNRMGYRLQGQILKRTTDRELLSHGLLPGVVQVPHNGQPIVLMNDAQTTGGYPRIACIIEADMYHLAQIPLGQPIHFVQCSLEEALKARQDQQRYFEQLAWRLHNEN | soluble
MLKKGNEMKAVIVYASVHHGNTKKIEEAMASVISADVIDVTRKIKPDLSGYDVIGFVSGVYFHTFHEGIKKCIEENMSSKGQKVFLVATCGLGYRDYTKGMKDTLAKKDVLCMGSFQCRGWDTYGIFGKIGGIAKKHPNDRDLKEAQEFVLKTVCKTNNLEHHHHHH | not soluble
MLKRCNAKYSCEIIKEKRADGDDRMATIDLQKKSVKIVLEKKQLTKVTARVGLVLDITGSMRPLYKNGTVQNVVERILAVADQFDDNGLLDVWVYDNEFSRLKPVSEKDFSGYVDREILNNDRLHKFGRNDEPPVMKDVLRKYVTEEPSSYPAFIVFINDGGCKKSIKPIIEASSDKPVFWQFVGIGNGNFDFLNKLDTLEGRVIDNTNFLHIEEIDRISDDELYDALLAEFPFWLKEAKEKGIVREQEPPAEKPKKKGFFSRLFSKLEHHHHHH | soluble
MLKSASSLVRSFIRPQTFRLCSSSSTTQGSPSVSSDDEPVILENNPYTKEPRKSFLCSTGVELDYKNSRLLQQFVSTFSGRVYDRHITGLCDENKKKLIEAIAKSRRAGFMPIFVKDPKYTRDPKLFDPLKPIRPHSFA | not soluble
MLKSILRGALVATKPGPARRQFSFTALLRSETQPKEIINLERVQVRKMKKRRPVASSVVPKSLREPSVVAMALSESLNLNEVIMDAQLNGMYNITAIDEDADDSLHFVKKLEYTINPGELSEIFVFRDGVVVFWNVDSSQRSHILRELERYADAPYDSMIVMDEQDRMFYKFSEQSTGSTIRQDRFYLSGKHLDAFHGSNEAILERFALSQGFAASVKIGVWESLLNNLAEPLSNTTKSLTLGKIPWSRKQALMRSGEFAALRHSINLDCTLLNKDFYWERPELEKYYTMTGRHFSLDRRIGLLNKRLDYCEELVKMVDNTIALRHASHLEWMIIVLIVIEVIFDVFHFADKTPKSVMIVPDSSKAQQLRNEGN | not soluble
MLKVFADRGGTFTDIVAVTHNQEIIERLSKSTERFLIVPLPNQEWIIVYKLLSENPEQYQDAVIQGIRDIIGLSRNEPISDEAIEVVKMGTTVATNALLERKGDRVVLLITTGFKDALRIGYQNRPNIFAQRIVLPTMLYEQVIEVEERYDAQGNELTPVNIAQVKEDLQAVYHTGIRSCAIILMHSDRYPIHEQQVAQIAQEIG | not soluble
MLKVLVVDDEMLARDELKYLLERTKEVEIIGEADCVEDALEELMQSRPDIVFLDIQLSDDNGFEIANILKKMKNPPAIVFATAYDQYALQAFEVDALDYILKPFDEERIVQTLKKYKKQKQSQIETKHEIKGTDVTVEMHKLALPIEESIVLVNIEDIVYVGLVDGKVTVKTMRETYVTHDTLVILEKKLPQVSFMRVHRSFIANINHITEIQPWFNSTYNLIMKEGSKVPVSRTYAKELKKLLRI | not soluble
MLLDFPHGQFGFTNSCIIAVIWLSLSPTLNRGQLNLDRFKFWLPTSQLLVLDVCLFDAFALEHHHHHH | not soluble
MLLEEVRAGDRLSGAAARGDVQEVRRLLHRELVHPDALNRFGKTALQVMMFGSTAIALELLKQGASPNVQDTSGTSPVHDAARTGFLDTLKVLVEHGADVNVPDGTGALPIHLAVQEGHTAVVSFLAAESDLHRRDARGLTPLELALQRGAQDLVDILQGHMVAPL | soluble
MLLENFYKIIHIKEREDGKQEIEIELNPGHVLYQGHFPGQPVVPGVCTLQIIKESAEQIASQPLQYVQIASSKFLSAINPLETPLLQLFIRLEKTEEHLFKLQAEGICNGKEFIKLKAVLMASKYQLEHHHHHH | soluble
MLLHTFFDDSKTSVEETPRMFVARLFGSPVSTSIIPTEKESINNNNQETAKMPLDPMDSLWMSKAPQVSDLVVQPNVTFKAVTGGSPHSPSASIPIAGADDSIRPDYDTDCLWKPPTRSARVQKERTISMDSTDSEIGALGGRKFSTNEGASPAPTSPIDAQPRARRMSISEMLFGSSPKSFSWGMESNTTNTTTTSNSGGGDIGERKMSITDDPRFKDFMKHQSKIIGDDGISAAGFKRSNYMKD | not soluble
MLLKTKHFGEINIDESKIIEFKDGIPGFENLKRYVVLYDGDKNSPFRWLQNVDDGELAFAVVNPFMVVKDYDFEIPDEAVESLGIESILDVMVLSIVVVPEDISKMTMNLKAPVIINTKNNKGMQVVLDTDRYSVRHYIIEELRRQEVNVGAGSDEKEK | soluble
MLLMKTASKTNNSVRRNMNTHSAISELIAPWLELTDPKLAALVITHLELDSRLIKSGDTFVAIQGHAVDGRQFIDKAIAQGANLVLAEADAQHLNGWVEYRAGVPVIYLAELGQHLSELAGRLYGGHHNQLIGVTGTNGKTTITQLIAQWLELLGHKAAVMGTTGNGFLNALEPAANTTGNALQIQATLRDLAERGAQYTALETSSHGLVQGRVKKLHFVAGVFSNLSRDHLDYHGTMEAYAAAKFSLFSEHACQNAIINVDDAVGAQWVKQLPQAIGVSLVTKPNTAQAIWAREVAYAESGITLNFESSWGEGELHAPLIGEFNACNLLLALATLLSLGFEKSALLATAPKLRPVLGRMELFQREQKAKMVVDYAHTPDALEKALRALRVHCAGQLWAIVGCGGDRDRGKRPMMAAIAEQFADRVILTDDNPRSESPQAIVADMVAGLTYPERAHIEHHRFQAASYALQHAGAQDIILLAGKGHEDYQVLANETIHYSDRETAQQLLELQP | not soluble
MLLNEKDFKNEGVKIAALIMAESARTAPKSKGEDTIEIVYVDGEEMEKIAAKMEEMAEGGDKDFIRDAESVRKSQAILLIGAKGDRTVGVNCQACGFESCSEFKKADRKGENFVGPNCAFRMIDLGIALGSAVKVSAMLGIDTRIMYRIGIAAKKLGMIDADVVMGVPLSALGKSPYFDRAPKK | not soluble
MLLPWLFPQTKRNNFAAKVNSENQEKLLILRKEDASASSGQSELSLVQMGLKQVVASSFWLVFEFQHFKVGCNAARKFPVNGIANAQPQQCGTYRSHNGKLSIAIGHFCRIHQRAHTHFAIAKIAEFNPAVHCHHVVWHLFWRTHLGAIQLCV | not soluble
MLLQELLGIDEDIYLIEESYTSQRNPELTLQYLNRFLNFPDIENIRIIRVRQAGHTTGLLFFNPADEDVPVDFWSVFTGAFAQPALKEKFETLADSLLNLTSPEKDIELLHETWFNAVNEYYSLMLVNRNLCTSCSVKPESYGNVFSENRIKRVAEILELLRKKGYYPEGRLLEVCCGNGMSTLALYRSGLDPLAIEINKCTICQGLEQGVLNPQRVMVMDAAAVSRYFEPGSFDAVMGFMLGLVYEFNKGLWVRIVREAVSVAADGAVLLFTVSSKPEIEILADALFRAGVDGEIVDNTDSEGAYDQWLFVGRRQKNTST | not soluble
MLLVSGCSGELYSSHTHSLRWFCQSPEGCEREAEVKALARVLLYTDTFTLYTDYGQFAVDFVQRVPSDELPRECDALYGLSLFGHELESSTLCSVGGDAYEMRISVPNRNPSSASEWLAEMRPL | not soluble
MLMIKVVCGKKGSGKTRALVDSANSFVSTALGDAVFIDGSSQLMCDLHHKVRFINVSEFPIDISSSCTFLGFLCGIISSNFDVKWVYMDDLIRIVRKPPHEMKELFDGFNELSEKFNVDFYVSIEGDPDSMPDFIKVCY | not soluble
MLMSVFHNWLLEIACENYFVYIKRLSANDTGATGGHQVGLYIPSGIVEKLFPSINHTRELNPSVFLTAHVSSHDCPDSEARAIYYNSAHFGKTRNEKRITRWGRGSPLQDPENTGALTLLAFKLDEQGGDCKEVNIWVCASTDEEDVIETAIGEVIPGALISGPAGQILGGLSLQQAPVNHKYILPEDWHLRFPSGSEIIQYAASHYVKNSLDPDEQLLDRRRVEYDIFLLVEELHVLDIIRKGFGSVDEFIALANSVSNRRKSRAGKSLELHLEHLFIEHGLRHFATQAITEGNKKPDFLFPSAGAYHDTEFPVENLRMLAVKTTCKDRWRQILNEADKIHQVHLFTLQEGVSLAQYREMRESGVRLVVPSSLHKKYPEAVRAELMTLGAFIAELTGLYADIP | soluble
MLNARINQSIKCNQVRIHNVADKITWAELTKIEQLLKIIPQWEKLIKIQTTSKIFNSTSWVASWLETFWQKNWQLNVLIAWCDDELIAIVPLYYQQNNSILPMKVLYPLGQGEAEAQEISTEYTDILINEKFQEHLLPKIQQWILNLKADQLHWHALLHNSSTRNILADYEQTKSNEATRYIVNGLNWSLENLSKNMRSRYRRGLNQLDKLNATIDWVEQSDFDQYWQLMKKLHQKRWQGKNAKGAFCSDEFNQFHAKFREKSPKNIAMSAIWVNDTPIAIHYYFSDATTLYFYQSGWNESEYSHLSPGLILHLWTIENNNKPYYDFMMGKKKDSYKAKFATLQQPMYNITLTFSPIKLLFYSVFEKIKVKYLSA | not soluble
MLNEKQAKHIATAIENGNYRSKRQAIVDTTNFWSVSVPIFYQFDTKLSATNIANVRKAIQFWNDNSCLSFKEDNNAKNRLFLSSAGGCWSYVGKQVDMPYQMVSVGPNCDTFGTATHELMHAIGFWHQQSRADRDNYVYVDFSNIIPSQAYNFQKMAVDQAQLLNLPYDYGSVMQYYPYAFAVDSSKYTILAKENGFQNSMGQREAPAFSDIIGVNKLYNCTSQCKIQMKCSNCGITDSRNCNQCKCPRYFTGASCDSLPSGTAPNCNGAVLQATSSWETFDAKAGDPSSFSSSTDNSTNCYWHIKAPEGQQIEFKMTKTPLAAICMQECPWQSIEVNLGKFDLFGMITCCDTILNQVFTSELNMIALRGIIRYNQLTFSIQYRAVPSSKPASTNACLNQ | not soluble
MLNIFTTISKINITSLAIGCFDGMHLGHLKLVKCLDENGALLVINKFKGQFLCSNRQKEEISGKKVIEVDFESIKSLDGRDFLSFLKKEFVNLKFIVVGYDFSFGKNRAYNAKDIESLSGIKTIIVDEFSIDGIGVHASLIKDFLSKANLQKAKEFLGRDYSIKGKMIKGQGLGSKELFATINLDCEGYFLPQNGVYVTLLKSQRKTYKSVSFLGVRSSDENFAIESHILEELGENFTQGEFFELEFISFLRENQKFQDLKKLKNQIAKDIEQARELLRKNDER | not soluble
MLNILDIITDWIKEILRDCIMGNLDGMFDQINNEVGEVAANVGTTPAAWNAGVFSMIRNLSDT | not soluble
